# Test results taken from patent publication US20090017017A1 (SYMPHOGEN A S, published 2009).
# T1: Rhesus D antigen (human, UniProt Q02161 2-417)
# T1 construct: whole, on cells; Presented on RhD(+) erythrocytes; also called RhD; RhD antigen
# T1 sequence (looked up): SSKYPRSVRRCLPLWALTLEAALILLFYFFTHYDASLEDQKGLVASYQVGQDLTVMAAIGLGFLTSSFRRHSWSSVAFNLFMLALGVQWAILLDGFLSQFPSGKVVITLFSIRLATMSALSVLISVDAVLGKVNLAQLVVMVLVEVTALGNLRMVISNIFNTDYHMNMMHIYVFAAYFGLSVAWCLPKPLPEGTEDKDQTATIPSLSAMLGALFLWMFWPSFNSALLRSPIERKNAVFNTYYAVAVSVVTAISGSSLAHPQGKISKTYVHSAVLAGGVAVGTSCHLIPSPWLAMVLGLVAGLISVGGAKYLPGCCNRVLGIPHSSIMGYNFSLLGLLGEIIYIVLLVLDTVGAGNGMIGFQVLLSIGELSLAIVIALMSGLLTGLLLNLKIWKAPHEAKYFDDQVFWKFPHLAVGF
# Target: T1, Rhesus D antigen
# Experiment: agglutination assay, Fab periplasmic extract on RhD(+)/RhD(-) RBC mix
# Method: After each round of panning single colonies were picked for analysis of their binding properties to red blood cells in agglutination assays. Briefly, single colonies were inoculated into 2×YT/100 μg/mL carbenicillin/1% glucose and shaken overnight at 37° C. The next day, DeepWell plates were inoculated using 900 μl 2×YT/100 μg/mL carbenicillin/0.1% glucose and 10 μl overnight culture. The plates were shaken for two hours at 37° C., before Fab induction was performed with addition of 300 μl 2×YT/100 μg/mL carbenicillin/0.25 mM IPTG per well. The plate was shaken overnight at 30° C. The following day, the bacteria were pelleted by centrifugation (3200×g, 4° C., 10 minutes), and re-suspended in 100 μl of 0.8 M NaCl, 0.2×PBS, 8 mM EDTA, and incubated for 15 minutes on ice in order to perform a periplasmic extraction of the Fab fragments. The plate was transferred to −20° C. and finally the suspension was thawed and centrifugation was performed for 10 minutes at 4° C. and 3200×g. The periplasmic extract was used in ELISA assays for analysis of Fab content and in agglutination assays to evaluate the binding potential of the individual Fab fragments.
# The agglutination assay was performed as follows: RhD(−) and RhD(+) RBC were mixed in a 1:1 ratio, and washed 3 times in PBS. After the final wash, the cell mix was re-suspended in 1% BSA in PBS at a density of 10% cells, 50 μl was added to each well of a 96-plate. Periplasmic extracts were added to the wells. As a positive control Rhesogamma P immunoglobulin (Aventis) was used according to the manufacturer's instructions. The plates were incubated for one hour at room temperature with gentle shaking. The cells were washed three times with PBS, before the secondary antibody was added (goat anti-human Fab/FITC conjugate, Sigma F5512) in a 1:100 dilution. The plates were left for agglutination for one hour at room temperature without shaking. Fab fragments positive in the agglutination assay was determined by visual inspection, and recorded by taking a picture. Quantization of the binding activity of the Fab fragments was performed by FACS analysis of the agglutination samples.
row,Binder,binding result
1,"RhD203.179F07 (Fab, V domains shown, Tested as Fab in E. coli periplasmic extract (VH on human gamma 1 CH1, vector Em351)) VH: EVQLVESGGGVVQPGRSLRLSCAASGFTFSNYGMHWVRQAPGKGLEWVAVIWYDGSNKYYADSVKGRFTISRDNSKNTLYLQMNSLRAEDTAVYYCAREMVSYSSSWYRRYYYYVMDVWGKGTTVTVSS VL: QSALTQPASVSGSPGQSITISCTATSSDIGAYNYVSWYQHHPGKAPKVIITDVNKRPSGVPDRFSGSKSGNTASLTISGLQPEDEAEYSCCSYAGTYSYVFGTGTKVTVLS",binds
2,"RhD191.119E08 (Fab, V domains shown, Tested as Fab in E. coli periplasmic extract (VH on human gamma 1 CH1, vector Em351)) VH: QVQLVESGGDLVQPGGSLRLSCAASGFTFRSYEMNWVRQAPGKGLEWVSYINSRGNTKYYADSVKGRFTISRDNAKKSLYLQMSSLRAEDTAVYYCARNLFGDYDLKSYYYNAMDVWGQGTLVTVSS VL: EIVLTQSPGTLSSSPGERATLSCRASQSVTSRYLAWYQQKHGQAPRLLIYGTSTRATGIPDRFSGGGSQTDFTLTISRLEPEDFAVYYCQHYDDSISTYIFGPGTELEIKR",binds
3,"RhD197.127A08 (Fab, V domains shown, Tested as Fab in E. coli periplasmic extract (VH on human gamma 1 CH1, vector Em351); Lambda clone) VH: QVQLVESGGGVVQPGRSLRLSCAASGFTFSNYGMHWVRQAPGKGLEWVAVIWFDGSNRDYADSVKGRFTISRDNSKKTLYLQMNSLRAEDTAVYYCATELARGRLRALEYWGQGTLVTVSS VL: QTVVTQEPSLTVSPGGTVTLTCASSTGAVTTGYYPNWFQQKPGQAPRALIYSTSKKHSWTPARFSGSLLGGKAALTLSGVQPEDEAEYYCLLFYGGAQLGVFGGGTKLTVLG",binds
4,"RhD207.127A11 (Fab, V domains shown, Tested as Fab in E. coli periplasmic extract (VH on human gamma 1 CH1, vector Em351)) VH: EVQLVESGGGVVQPGRSLRLSCAASGFTFSSYGMHWVRQAPGKGLEWVAVIWYDGSNKDYVDSVKGRFTISRDNSKNTLYLQMNSLRAEDTAVYYCARELAKGRLRDLDHWGQGTLVTVSS VL: QAVVTQEPSLTVSPGGTVTLTCASSTGAVTTGYYPNWFQQKPGQAPRALVHSTSKKHSWTPARFSGSLLGGKAALTLSGVQPEDEAEYYCLLFYGGAQLGVFGGGTKLTVLG",binds
5,"RhD193.126G05 (Fab, V domains shown, Tested as Fab in E. coli periplasmic extract (VH on human gamma 1 CH1, vector Em351)) VH: QVQLVETGGGVVQPGRSLRLSCAASGFTFSSYGMHWVRQAPGKGLEWVAVIWYDGSNKDYADPVKGRFTISRDNSKNTLYLQMNSLRAEDTAVYYCAREIASRGYSRYLYYFDSWGQGTLVTVSS VL: DIQMTQSPSSLSASVGDRVTITCRASQSISSYLNWYQQNPGKAPKLLIYGASNLQSGVPSRFSGSGSGTDFTLTISSLQPEDFATYYCQQSYSTLALTFGGGTKVEIKR",binds
6,"RhD297.126E06 (Fab, V domains shown, Tested as Fab in E. coli periplasmic extract (VH on human gamma 1 CH1, vector Em351)) VH: QVQLVESGGGVVQPGRSLRLSCAASGFTFRTYGMHWVRQAPGKGLEWVAVIWYDGSNKDYADSVKGRFTISRDNSKNTLHLQMNSLRAEDTAVYYCAREIASRGYSRYLYYLDFWGQGTLVTVSS VL: DIQLTQSPSSLSASVGDRVTITCRASQSISSYLNWYQQNPGKAPKLLIYGASNLQSGVPSRFSGSGSGTDFTLTISSLQPEDFATYYCQQSYSTLALTFGGGTKVEIKR",binds
7,"RhD157.119D11 (Fab, V domains shown, Tested as Fab in E. coli periplasmic extract (VH on human gamma 1 CH1, vector Em351)) VH: EVQLVESGGGLVQPGGSLRLSCVASGFTFRSFDMNWVRQAPGKGLEWVSYINSRGSTIYYADSVKGRFTISRENAKNSLYLQMNSLRAEDTAVYYCARDLYGDYDPKSYYYYGMGVWGQGTTVTVSS VL: EIVLTQSPATLSLSPGERATLSCRASQSVSSYLAWYQQKRGQAPRLLIFNASNRATGIPARFSGSGSGTDFTLTISSLEPEDFAVYYCQQRSSWPPMYTFGQGTKLEIKR",binds
8,"RhD192.119G06 (Fab, V domains shown, Tested as Fab in E. coli periplasmic extract (VH on human gamma 1 CH1, vector Em351)) VH: QVQLVESGGGLVKPGGSLRLSCAASGFTFSSYAMNWVRQAPGKGLEWVSSISGTSSYIYYADSVKGRFTIFRDNAKSSVYLQMNSLRVEDTAVYYCARDRWWGMVRRVFPTYPFDYWGQGTLVTVSS VL: DIQLTQSPSSVSASVGDRVTITCRASQGINNLLAWYQQKPGKAPKLLIYAASNLQSGVPSRFSGSGSGTDFTLTINSLQPEDFATYYCQQANSFPLTFGGGTKVEIKR",binds
9,"RhD190.119F05 (Fab, V domains shown, Tested as Fab in E. coli periplasmic extract (VH on human gamma 1 CH1, vector Em351)) VH: EVQLVETGGGVVQPGRSLRLSCAASGFSFSNYGMHWVRQAPGKGLEWVAVIWFDGSIKYYVDSVKGRFTISRDNSKNTLYLQMNSLRAEETAIYFCARENSVLVPGTIRRRYYLDYWGQGTLVTVSS VL: DIQLTQSPSSLSASVGDRVTITCRASQSISSYLNWYQQKPGEAPKLLIYVASTLQSGAPSRFSGSGSGTDYTLTISSLQPEDSATFYCQQTYSPPYTFGQGTKLEIKR",binds
10,"RhD195.127A07 (Fab, V domains shown, Tested as Fab in E. coli periplasmic extract (VH on human gamma 1 CH1, vector Em351)) VH: QVQLQESGPGLVKPSQTLSLTCTVSGGSISSGSYYWSWIRQPAGKGPEWIGRIYTSGSTNYNPSLKSRLTISVDTSKNQFSLKLTSVTAADTAVYYCARAPSYYDSSGYRYWYIDLWGRGTLVTVSS VL: DIQLTQSPSSLSASVGDRVTITCRASQNINRYLNWYQHKPGRAPELLIYAASTLRRGVPSRFSGSGSGTDFTLTISSLQPEDFATYYCQQSYSRGTFGQGTKVEIKR",binds
11,"RhD200.164G10 (Fab, V domains shown, Tested as Fab in E. coli periplasmic extract (VH on human gamma 1 CH1, vector Em351)) VH: VQLVESGGGGVVQPGRSLRLSCAASGFTFSSYGMHWVRQAPGKGLEWVAVIWYDGSNKYYADSVKGRFTISRDNSKNTLYLQMNSLRAEDTAVYYCARESTLYSSSWYRRYYYYGMDVWGQGTTVTVSS VL: not shown",binds
12,"RhD201.164H12 (Fab, V domains shown, Tested as Fab in E. coli periplasmic extract (VH on human gamma 1 CH1, vector Em351)) VH: QVQLVESGGGVVQPGRSLRLSCAASGFTFSSYAMHWVRQAPGKGLEWVAVISYDGSNKYYADSVKGRFTISRDNSKNTLYLQMNSLRAEDTAVYYCARESTLYSSSWYRRYYYYSMDVWGQGTTVTVSS VL: EIVLTQSPATLSVSPGERATLSCRASQSVTSNLAWYQQKPGQAPRLLIYGASTRATGVPARFSGSGSGTEFSLTISSLQSEDFAVYYCQQYNNWPPIFTFGPGTKLDIKR",binds
13,"RhD194.126G10 (Fab, V domains shown, Tested as Fab in E. coli periplasmic extract (VH on human gamma 1 CH1, vector Em351)) VH: QVTLKESGPVLVKPTETLTLTCTVSGFSLSNARMGVSWIRQPPGKALEWLAHIFSNDEKSYSTSLKSRLTISKDTSKSQVVLTMTNMDPVDTATYYCARMRLTMVRGVITYYYYSMDVWGQGTTVTVSS VL: DIQMTQSPSSLSASVGDRVTITCRASQSISTYLNWYQQKPGKAPKLLIYAASTLQSGVPSRFSGSGSGTHFTLTISSLQREDFATYYCQQTYRTPTWTFGQGTKVEIKR",binds
14,"RhD298.126E10 (Fab, V domains shown, Tested as Fab in E. coli periplasmic extract (VH on human gamma 1 CH1, vector Em351)) VH: QVQLVESGGGVVQPGRSLRLSCAASGFTFSSYGMHWVRQAPGKGLEWVAVIWYDGSNKYYADSVKGRFTISRDNSKNTLYLQMNSVRAEDTAVYYCARDLSTQRGYSRYYYVMDVWGQGTTVTVSS VL: DIQMTQSPSSLSASVGDRVTITCRASQSISTYLNWYQQKPGKAPKLLISAASSLQSGVPSRFSGSGSGTDFTLTISSLQREDYAAYYCQQSYSTPPYTFGQGTKLEIKR",binds
15,"RhD196.126H11 (Fab, V domains shown, Tested as Fab in E. coli periplasmic extract (VH on human gamma 1 CH1, vector Em351)) VH: QVQLVESGGGVVQPGRSLRLSCAASGFTFSSYGMHWVRQAPGKGLEWVAVIWYDGSNKDYADSVKGRFTISRDNSKNTLYLQMNSVRAEDTAVYYCARELSTQRGYSRYHYVMDVWGQGTTVTVSS VL: DIQMTQSPSSLSASVGDRVTITCRASQSISTYLNWYQQKPGKAPKLLIYAASTLQSGVPSRFSGSGSGTHFTLTISSLQREDFATYYCQQSYGTPTWTFGQGTKVEIKR",binds
16,"RhD198.127F10 (Fab, V domains shown, Tested as Fab in E. coli periplasmic extract (VH on human gamma 1 CH1, vector Em351)) VH: QVQLVQSGGGVVQPGKSLRLSCAASGFTFSTYGMHWVRQAPGKGLEWVAVIWYDGSNKYYADSVKGRFTISRDTSKNTLYLQMNSVRVEDTAVYYCARDLTTQRGYSRYHYVMDVWGQGTTVTVSS VL: DIQMTQSPSSLSASVGDRVTITCRASQSIGNYLNWYQQKPGKAPKLLISAASSLQSGVPSRFSGSGSGTDFTLTISSLHREDYATYYCQQSYSTPPYTFGQGTKLEIKR",binds
17,"RhD202.158E07 (Fab, V domains shown, Tested as Fab in E. coli periplasmic extract (VH on human gamma 1 CH1, vector Em351)) VH: QVQLVESGGGVVQPGRSLRLSCAASGFTFSSYGMHWVRQAPGKGLEWVAVIWFDGSNRYYGDSVKGRVTISRDNSKNTLYLRMNSLRAEDTAVYYCAREFYTRSGLWSQGYSYYMDVWGKGTTVTVSS VL: EIVLTQSPGTLSLSPGERATLSCRASQSVSSSYLAWYQHKPGQAPRLLIYGSSNRATGIPDRFSGSGSGTDFTVTISRLEPEDFAVYYCQQYGTAPYTFGQGTKLEIKR",binds
